Measured values from US20210087295A1 (University of Pennsylvania, published 2021).

Experiments:
[1] = target: T1, human fibroblast activation protein (FAP) (human, UniProt Q12884 1-760); assay: flow cytometry, hybridoma supernatant on human primary fibroblasts and BALB/c 3T3 cells with a human FAP transgene
T1 construct: whole, on cells; also called human FAP; huFAP
T1 sequence (looked up): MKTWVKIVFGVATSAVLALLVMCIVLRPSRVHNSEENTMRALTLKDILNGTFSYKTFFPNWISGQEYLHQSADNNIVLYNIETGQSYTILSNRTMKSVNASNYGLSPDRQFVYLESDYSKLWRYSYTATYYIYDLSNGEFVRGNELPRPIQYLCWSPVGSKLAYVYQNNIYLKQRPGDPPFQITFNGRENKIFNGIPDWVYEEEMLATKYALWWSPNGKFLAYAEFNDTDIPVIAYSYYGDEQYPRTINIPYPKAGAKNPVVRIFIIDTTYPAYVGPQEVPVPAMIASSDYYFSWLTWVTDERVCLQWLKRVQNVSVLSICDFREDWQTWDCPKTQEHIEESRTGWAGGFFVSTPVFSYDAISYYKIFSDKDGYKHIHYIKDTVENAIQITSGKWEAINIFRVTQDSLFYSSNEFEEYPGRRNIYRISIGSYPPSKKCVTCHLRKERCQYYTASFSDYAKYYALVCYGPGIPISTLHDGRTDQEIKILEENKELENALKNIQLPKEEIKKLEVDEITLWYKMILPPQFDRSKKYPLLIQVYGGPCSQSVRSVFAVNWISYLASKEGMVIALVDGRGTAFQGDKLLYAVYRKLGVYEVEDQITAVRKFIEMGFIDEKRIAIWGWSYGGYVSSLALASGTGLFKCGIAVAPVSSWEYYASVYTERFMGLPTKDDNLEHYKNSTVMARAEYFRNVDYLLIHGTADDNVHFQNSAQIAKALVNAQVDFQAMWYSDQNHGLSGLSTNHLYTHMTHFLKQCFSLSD
Procedure: (§1) BALB/c 3T3 cells expressing full-length canine FAP were used to immunize 14 week old BALB/c.FAP^{-/-} mice. All injections were given intraperitoneally and consisted of 1×10⁷ cells in 0.5 ml sterile PBS. An initial immunization was followed by boosts on days 14 and 28; animals were then bled on day 42 followed a boost on day 56, bleeding on day 63, and three more boosts on days 70, 217, and 238. On day 241, […] spleens were harvested, a single cell suspension prepared, and splenocytes fused with sp2/0 cells by the UPENN Hybridoma Core Facility. Hybridoma supernatant were initially screened by FACS on MC KOSA parental (FAP null) vs. canine FAP-transgene expressing MC KOSA.K9FAP using hybridoma supernatants as the primary antibodies and AF488 goat anti-mouse IgG as a secondary. Clone 4G5 was identified as reactive to transduced cells but not parental cells and screened on additional cells to confirm reactivity with FAP expressing but not FAP-negative cells: Human primary fibroblasts, BALB/c 3T3 expressing murine or human FAP transgenes, canine primary fibroblasts, SK KOSA (FAP expressing), and BALB/c 3T3 (FAP negative) cells. 4G5 was then determined to be an IgG1k isotype antibody using Thermo Fisher Rapid ELISA Mouse mAb Isotyping Kit #37503.
(§2) BALB/c 3T3 fibroblast cells transduced to express full-length canine FAP were used to immunize 14 week old BALB/c FAP^{-/-} mice. […]

[2] = target: T2, murine fibroblast activation protein (FAP) (mouse, UniProt P97321 1-761); assay: flow cytometry, hybridoma supernatant on BALB/c 3T3 cells with a murine FAP transgene
T2 construct: whole, on cells; also called mouse FAP; muFAP
T2 sequence (looked up): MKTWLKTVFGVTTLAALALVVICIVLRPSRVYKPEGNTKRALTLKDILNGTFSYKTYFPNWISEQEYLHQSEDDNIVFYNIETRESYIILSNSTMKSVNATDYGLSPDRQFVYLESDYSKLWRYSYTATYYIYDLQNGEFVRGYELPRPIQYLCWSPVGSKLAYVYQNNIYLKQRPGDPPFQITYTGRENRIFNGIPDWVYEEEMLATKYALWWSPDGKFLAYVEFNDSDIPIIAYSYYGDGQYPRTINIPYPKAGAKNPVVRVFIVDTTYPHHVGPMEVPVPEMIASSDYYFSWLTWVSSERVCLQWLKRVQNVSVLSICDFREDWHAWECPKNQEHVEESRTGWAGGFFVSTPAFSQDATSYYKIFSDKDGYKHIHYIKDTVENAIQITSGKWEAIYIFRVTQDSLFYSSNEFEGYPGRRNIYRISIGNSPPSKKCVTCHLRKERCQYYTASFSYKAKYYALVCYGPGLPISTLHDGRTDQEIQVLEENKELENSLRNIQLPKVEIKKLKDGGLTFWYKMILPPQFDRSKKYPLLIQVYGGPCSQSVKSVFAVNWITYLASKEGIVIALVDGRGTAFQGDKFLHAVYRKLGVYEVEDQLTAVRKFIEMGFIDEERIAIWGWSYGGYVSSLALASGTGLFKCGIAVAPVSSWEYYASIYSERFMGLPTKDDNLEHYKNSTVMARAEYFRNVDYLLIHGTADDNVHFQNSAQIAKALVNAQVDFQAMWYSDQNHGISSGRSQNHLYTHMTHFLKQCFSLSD
Procedure: as §1, §2

B1: clone 4G5 anti-FAP antibody (antibody, mouse IgG1, V domains shown)
VH: QVQLQQPGAELVKPGASVKLSCKASGYTITSYSLHWVKQRPGQGLEWIGEINPANGDHNFSEKFEIKATLTVDSSSNTAFMQLSRLTSEDSAVYYCTRLDDSRFHWYFDVWGAGTTVTVSS
VL: QIVLTQSPALMSASPGEKVTMTCTASSSVSYMYWYQQKPRSSPKPWIFLTSNLASGVPARFSGRGSGTSFSLTISSMEAEDAATYYCQQWSGYPPITFGSGTKLEIK
notes: Mouse IgG1 kappa antibody from a hybridoma, used as hybridoma supernatant in flow cytometry; also called 4G5 immunoglobulin; monoclonal 4G5 antibody
[1]
  binding result: binds
[2]
  binding result: binds
